# Measured values as given in paper PMC9482650, “Quantitative fragmentomics allow affinity mapping of interactomes” (Nature Communications, 2022).
# Residue numbers refer to the chain shown, from its start.
# T1: ARHGAP21, Q5T5U3
# T1 sequence (Q5T5U3 45-169, limits assumed, looked up): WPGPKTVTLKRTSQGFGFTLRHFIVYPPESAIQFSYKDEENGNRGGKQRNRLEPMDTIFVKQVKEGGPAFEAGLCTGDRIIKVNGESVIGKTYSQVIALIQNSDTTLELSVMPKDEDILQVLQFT
# T2: DLG3_3, Q92796
# T2 sequence (Q92796 374-475, limits assumed, looked up): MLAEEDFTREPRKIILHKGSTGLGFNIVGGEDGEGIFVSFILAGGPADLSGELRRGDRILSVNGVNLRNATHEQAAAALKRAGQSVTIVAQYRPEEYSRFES
# T3: LIN7A, O14910
# T3 sequence (O14910 103-200, limits assumed, looked up): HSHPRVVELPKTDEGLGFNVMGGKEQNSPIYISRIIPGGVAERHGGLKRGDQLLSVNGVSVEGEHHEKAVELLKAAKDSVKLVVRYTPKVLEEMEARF
# T4: LIN7B, Q9HAP6
# T4 sequence (Q9HAP6 88-185, limits assumed, looked up): T3 sequence (O14910 103-200, limits assumed, looked up) with S2A, V20I, I35V, E42D, H65Q, K77Q, D78G, K89R
# T5: MPDZ_5, O75970
# T5 sequence (O75970 695-796, limits assumed, looked up): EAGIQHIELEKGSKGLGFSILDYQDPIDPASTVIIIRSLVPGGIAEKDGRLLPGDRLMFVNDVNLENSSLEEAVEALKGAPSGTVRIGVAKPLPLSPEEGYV
# T6: PARD3B_1, Q8TEW8
# T6 sequence (Q8TEW8 196-299, limits assumed, looked up): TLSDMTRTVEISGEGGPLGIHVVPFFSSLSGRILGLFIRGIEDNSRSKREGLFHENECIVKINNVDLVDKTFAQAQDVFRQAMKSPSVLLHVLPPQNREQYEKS
# T7: PCLO, Q9Y6V0
# T7 sequence (Q9Y6V0 4491-4600, limits assumed, looked up): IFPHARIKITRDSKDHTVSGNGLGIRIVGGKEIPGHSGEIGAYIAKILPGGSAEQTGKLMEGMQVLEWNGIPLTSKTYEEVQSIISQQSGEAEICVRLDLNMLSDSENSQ
# T8: PDZD7_3, Q9H5P4
# T8 sequence (Q9H5P4 857-944, limits assumed, looked up): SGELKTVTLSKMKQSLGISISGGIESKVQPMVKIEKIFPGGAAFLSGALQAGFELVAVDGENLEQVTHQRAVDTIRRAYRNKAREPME
# T9: SNTG2, Q9NY99
# T9 sequence (Q9NY99 68-166, limits assumed, looked up): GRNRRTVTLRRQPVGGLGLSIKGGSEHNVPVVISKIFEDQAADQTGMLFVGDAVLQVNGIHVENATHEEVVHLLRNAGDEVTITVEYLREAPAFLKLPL
# T10: TX1BP3, O14907
# T10 sequence (O14907 10-122, limits assumed, looked up): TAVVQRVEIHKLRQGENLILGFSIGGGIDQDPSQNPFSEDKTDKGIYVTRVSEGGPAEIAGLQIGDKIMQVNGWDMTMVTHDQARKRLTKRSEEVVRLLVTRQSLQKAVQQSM
# B1: FRMPD4, Q14CM0 (peptide)
# chain: RLPKIKETTV
# B2: ATP2B4, P23634 (peptide)
# chain: SSLQSLETSV
# Target: T1, ARHGAP21, Q5T5U3
# Assay: holdup assay
# Parameters: key: below the threshold = too weak to quantify, mostly under pKd 3.1 to 4
# Settings: plain residues with an end cap or a label only (N-terminal biotin on a linker: ttds)
row,pKd,Binder
1,below the threshold,B1
2,below the threshold,B2

# Target: DLG1_1, Q12959
# Assay: holdup assay
# Parameters: key: below the threshold = too weak to quantify, mostly under pKd 3.1 to 4
# Settings: plain residues with an end cap or a label only (N-terminal biotin on a linker: ttds)
row,pKd,Binder
1,5.12,B1
2,5,B2

# Target: DLG1_2, Q12959
# Assay: holdup assay
# Parameters: key: below the threshold = too weak to quantify, mostly under pKd 3.1 to 4
# Settings: plain residues with an end cap or a label only (N-terminal biotin on a linker: ttds)
row,pKd,Binder
1,6.06,B1
2,5.43,B2

# Target: DLG1_3, Q12959
# Assay: holdup assay
# Parameters: key: below the threshold = too weak to quantify, mostly under pKd 3.1 to 4
# Settings: plain residues with an end cap or a label only (N-terminal biotin on a linker: ttds)
row,pKd,Binder
1,5.3,B1
2,4.86,B2

# Target: DLG2_2, Q15700
# Assay: holdup assay
# Parameters: key: below the threshold = too weak to quantify, mostly under pKd 3.1 to 4
# Settings: plain residues with an end cap or a label only (N-terminal biotin on a linker: ttds)
# Sequence of DLG2_2, Q15700 (Q15700 189-283): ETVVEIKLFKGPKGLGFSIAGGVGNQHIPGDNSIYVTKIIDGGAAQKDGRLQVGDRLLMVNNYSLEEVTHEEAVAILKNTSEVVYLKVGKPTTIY
row,pKd,Binder
1,5.5,B1
2,5.08,B2

# Target: T2, DLG3_3, Q92796
# Assay: holdup assay
# Parameters: key: below the threshold = too weak to quantify, mostly under pKd 3.1 to 4
# Settings: plain residues with an end cap or a label only (N-terminal biotin on a linker: ttds)
row,pKd,Binder
1,5.21,B1
2,4.73,B2

# Target: FRMPD4, Q14CM0
# Assay: holdup assay
# Parameters: key: below the threshold = too weak to quantify, mostly under pKd 3.1 to 4
# Settings: plain residues with an end cap or a label only (N-terminal biotin on a linker: ttds)
# Sequence of FRMPD4, Q14CM0 (Q14CM0 67-160): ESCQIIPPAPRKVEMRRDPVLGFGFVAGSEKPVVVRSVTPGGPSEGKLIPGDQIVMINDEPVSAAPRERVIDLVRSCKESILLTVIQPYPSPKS
row,pKd,Binder
1,3.4,B1
2,below the threshold,B2

# Target: GRASP, Q7Z6J2
# Assay: holdup assay
# Parameters: key: below the threshold = too weak to quantify, mostly under pKd 3.1 to 4
# Settings: plain residues with an end cap or a label only (N-terminal biotin on a linker: ttds)
# Sequence of GRASP, Q7Z6J2 (Q7Z6J2 96-193): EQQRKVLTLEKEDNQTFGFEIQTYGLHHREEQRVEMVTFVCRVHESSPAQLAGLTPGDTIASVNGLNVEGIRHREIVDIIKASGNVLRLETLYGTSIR
row,pKd,Binder
1,3.47,B1
2,3.6,B2

# Target: GRIP2_3, Q9C0E4
# Assay: holdup assay
# Parameters: key: below the threshold = too weak to quantify, mostly under pKd 3.1 to 4
# Settings: plain residues with an end cap or a label only (N-terminal biotin on a linker: ttds)
# Sequence of GRIP2_3, Q9C0E4 (Q9C0E4 238-339): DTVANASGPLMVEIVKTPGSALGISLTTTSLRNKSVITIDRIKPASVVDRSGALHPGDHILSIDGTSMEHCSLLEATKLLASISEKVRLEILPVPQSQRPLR
row,pKd,Binder
1,below the threshold,B1
2,below the threshold,B2

# Target: GRIP2_5, Q9C0E4
# Assay: holdup assay
# Parameters: key: below the threshold = too weak to quantify, mostly under pKd 3.1 to 4
# Settings: plain residues with an end cap or a label only (N-terminal biotin on a linker: ttds)
# Sequence of GRIP2_5, Q9C0E4 (Q9C0E4 544-642): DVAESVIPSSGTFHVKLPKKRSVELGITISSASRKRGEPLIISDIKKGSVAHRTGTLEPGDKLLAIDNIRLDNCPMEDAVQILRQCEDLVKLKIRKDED
row,pKd,Binder
1,below the threshold,B1
2,below the threshold,B2

# Target: GRIP2_7, Q9C0E4
# Assay: holdup assay
# Parameters: key: below the threshold = too weak to quantify, mostly under pKd 3.1 to 4
# Settings: plain residues with an end cap or a label only (N-terminal biotin on a linker: ttds)
# Sequence of GRIP2_7, Q9C0E4 (Q9C0E4 934-1023): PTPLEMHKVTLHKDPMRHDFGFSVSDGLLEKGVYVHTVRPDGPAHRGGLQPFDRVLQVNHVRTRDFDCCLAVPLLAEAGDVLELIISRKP
row,pKd,Binder
1,below the threshold,B1
2,3.52,B2

# Target: IL16_3, Q14005
# Assay: holdup assay
# Parameters: key: below the threshold = too weak to quantify, mostly under pKd 3.1 to 4
# Settings: plain residues with an end cap or a label only (N-terminal biotin on a linker: ttds)
# Sequence of IL16_3, Q14005 (Q14005 1107-1207): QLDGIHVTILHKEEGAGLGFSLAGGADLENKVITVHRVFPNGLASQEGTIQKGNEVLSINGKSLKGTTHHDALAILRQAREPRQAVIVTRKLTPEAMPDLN
row,pKd,Binder
1,below the threshold,B1
2,below the threshold,B2

# Target: Inadl_10, Q8NI35
# Assay: holdup assay
# Parameters: key: below the threshold = too weak to quantify, mostly under pKd 3.1 to 4
# Settings: plain residues with an end cap or a label only (N-terminal biotin on a linker: ttds)
# Sequence of Inadl_10, Q8NI35 (Q8NI35 1673-1763): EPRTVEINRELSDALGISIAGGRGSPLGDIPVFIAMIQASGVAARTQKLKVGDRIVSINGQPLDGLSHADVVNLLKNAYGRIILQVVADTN
row,pKd,Binder
1,below the threshold,B1
2,below the threshold,B2

# Target: Inadl_5, Q8NI35
# Assay: holdup assay
# Parameters: key: below the threshold = too weak to quantify, mostly under pKd 3.1 to 4
# Settings: plain residues with an end cap or a label only (N-terminal biotin on a linker: ttds)
# Sequence of Inadl_5, Q8NI35 (Q8NI35 673-780): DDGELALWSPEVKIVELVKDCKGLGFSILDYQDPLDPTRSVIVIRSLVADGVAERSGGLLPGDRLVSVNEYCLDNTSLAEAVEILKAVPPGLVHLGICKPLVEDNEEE
row,pKd,Binder
1,below the threshold,B1
2,below the threshold,B2

# Target: LDB3, O75112
# Assay: holdup assay
# Parameters: key: below the threshold = too weak to quantify, mostly under pKd 3.1 to 4
# Settings: plain residues with an end cap or a label only (N-terminal biotin on a linker: ttds)
# Sequence of LDB3, O75112 (O75112 1-94): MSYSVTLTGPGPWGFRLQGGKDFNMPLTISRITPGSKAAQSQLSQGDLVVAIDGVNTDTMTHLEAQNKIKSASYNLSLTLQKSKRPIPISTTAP
row,pKd,Binder
1,below the threshold,B1
2,below the threshold,B2

# Target: T3, LIN7A, O14910
# Assay: holdup assay
# Parameters: key: below the threshold = too weak to quantify, mostly under pKd 3.1 to 4
# Settings: plain residues with an end cap or a label only (N-terminal biotin on a linker: ttds)
row,pKd,Binder
1,4.38,B1
2,4.04,B2

# Target: T4, LIN7B, Q9HAP6
# Assay: holdup assay
# Parameters: key: below the threshold = too weak to quantify, mostly under pKd 3.1 to 4
# Settings: plain residues with an end cap or a label only (N-terminal biotin on a linker: ttds)
row,pKd,Binder
1,4.52,B1
2,4.3,B2

# Target: LNX1_3, Q8TBB1
# Assay: holdup assay
# Parameters: key: below the threshold = too weak to quantify, mostly under pKd 3.1 to 4
# Settings: plain residues with an end cap or a label only (N-terminal biotin on a linker: ttds)
# Sequence of LNX1_3, Q8TBB1 (Q8TBB1 500-596): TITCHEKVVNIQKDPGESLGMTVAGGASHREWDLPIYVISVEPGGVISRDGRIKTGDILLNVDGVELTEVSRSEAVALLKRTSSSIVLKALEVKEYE
row,pKd,Binder
1,below the threshold,B1
2,3.59,B2

# Target: MAGI3_2, Q5TCQ9
# Assay: holdup assay
# Parameters: key: below the threshold = too weak to quantify, mostly under pKd 3.1 to 4
# Settings: plain residues with an end cap or a label only (N-terminal biotin on a linker: ttds)
# Sequence of MAGI3_2, Q5TCQ9 (Q5TCQ9 398-503): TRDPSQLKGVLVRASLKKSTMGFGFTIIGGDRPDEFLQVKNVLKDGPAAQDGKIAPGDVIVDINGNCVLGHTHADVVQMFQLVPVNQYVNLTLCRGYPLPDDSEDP
row,pKd,Binder
1,5.27,B1
2,4.79,B2

# Target: MAST2, Q6P0Q8
# Assay: holdup assay
# Parameters: key: below the threshold = too weak to quantify, mostly under pKd 3.1 to 4
# Settings: plain residues with an end cap or a label only (N-terminal biotin on a linker: ttds)
# Sequence of MAST2, Q6P0Q8 (Q6P0Q8 1099-1202): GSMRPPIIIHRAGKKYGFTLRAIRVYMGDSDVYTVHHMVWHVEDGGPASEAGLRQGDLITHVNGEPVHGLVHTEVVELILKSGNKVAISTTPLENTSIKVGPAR
row,pKd,Binder
1,4.93,B1
2,5.53,B2

# Target: T5, MPDZ_5, O75970
# Assay: holdup assay
# Parameters: key: below the threshold = too weak to quantify, mostly under pKd 3.1 to 4
# Settings: plain residues with an end cap or a label only (N-terminal biotin on a linker: ttds)
row,pKd,Binder
1,below the threshold,B1
2,3.58,B2

# Target: T6, PARD3B_1, Q8TEW8
# Assay: holdup assay
# Parameters: key: below the threshold = too weak to quantify, mostly under pKd 3.1 to 4
# Settings: plain residues with an end cap or a label only (N-terminal biotin on a linker: ttds)
row,pKd,Binder
1,3.45,B1
2,below the threshold,B2

# Target: T7, PCLO, Q9Y6V0
# Assay: holdup assay
# Parameters: key: below the threshold = too weak to quantify, mostly under pKd 3.1 to 4
# Settings: plain residues with an end cap or a label only (N-terminal biotin on a linker: ttds)
row,pKd,Binder
1,below the threshold,B1
2,below the threshold,B2

# Target: T8, PDZD7_3, Q9H5P4
# Assay: holdup assay
# Parameters: key: below the threshold = too weak to quantify, mostly under pKd 3.1 to 4
# Settings: plain residues with an end cap or a label only (N-terminal biotin on a linker: ttds)
row,pKd,Binder
1,5.01,B1
2,4.48,B2

# Target: PICK1, Q9NRD5
# Assay: holdup assay
# Parameters: key: below the threshold = too weak to quantify, mostly under pKd 3.1 to 4
# Settings: plain residues with an end cap or a label only (N-terminal biotin on a linker: ttds)
# Sequence of PICK1, Q9NRD5 (Q9NRD5 17-115): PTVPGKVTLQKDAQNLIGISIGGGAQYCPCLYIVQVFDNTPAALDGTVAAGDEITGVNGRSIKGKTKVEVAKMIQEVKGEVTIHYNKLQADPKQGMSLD
row,pKd,Binder
1,below the threshold,B1
2,3.76,B2

# Target: T9, SNTG2, Q9NY99
# Assay: holdup assay
# Parameters: key: below the threshold = too weak to quantify, mostly under pKd 3.1 to 4
# Settings: plain residues with an end cap or a label only (N-terminal biotin on a linker: ttds)
row,pKd,Binder
1,5.3,B1
2,4.89,B2

# Target: TJP1_3, Q07157
# Assay: holdup assay
# Parameters: key: below the threshold = too weak to quantify, mostly under pKd 3.1 to 4
# Settings: plain residues with an end cap or a label only (N-terminal biotin on a linker: ttds)
# Sequence of TJP1_3, Q07157 (Q07157 416-512): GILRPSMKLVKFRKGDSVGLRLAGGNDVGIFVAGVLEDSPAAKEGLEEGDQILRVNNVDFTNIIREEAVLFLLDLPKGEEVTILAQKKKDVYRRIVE
row,pKd,Binder
1,below the threshold,B1
2,below the threshold,B2

# Target: T10, TX1BP3, O14907
# Assay: holdup assay
# Parameters: key: below the threshold = too weak to quantify, mostly under pKd 3.1 to 4
# Settings: plain residues with an end cap or a label only (N-terminal biotin on a linker: ttds)
row,pKd,Binder
1,4.57,B1
2,4.62,B2
